± gives the uncertainty stated by the source.

The nature of this series: amyloid nucleation score (Sup35N fusion, yeast selection) (log enrichment); library NNK2; higher = more nucleation; inactive = no reads after selection. The method in brief:
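On medium lacking adenine and uracil, psi-negative yeast expressing peptides of 20 random codons fused to Sup35N were grown 7 days at 30°C after a 24-hour induction with 100 μM copper sulfate. Illumina sequencing of input and output plasmid inserts gave the reads, and sequences under 100 input reads were excluded. The nucleation score is the DiMSum log enrichment of output over input reads, centred on the mode score of non-aggregating sequences.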

For the substance RLGEWECTHQVPFHSRWACG, the amyloid nucleation score is -0.087 ± 0.76. In turn, EVFGGFTRRRCVVLPRHRAW gave an amyloid nucleation score of 1.9 ± 0.27. To YPIIVFAVLCFEWETYWCSL belongs 0.015 ± 0.76. To DKVFDLTQMGFL belongs “inactive”; to IVEVVFRSIPIAMDSCCCSN, -1.14 ± 0.28. With QSTMDCT the figure was 0.082 ± 1.1; with CMSTDTTLVATMMLQTESA, 0.441 ± 0.23; with YYLSNSWVLYFCFGIFVTSQ, 1.88 ± 0.094. In turn, YSSDYILSFNVNNTMVVSFE returned an amyloid nucleation score of 5.59 ± 0.078.

As for GGDVNGVSCYGGDVGLSAKG, the amyloid nucleation score was found to be 0.616 ± 0.25. With LIYWCHAFVKT the figure was -1.27 ± 0.53.

For the substance IFHRLKDLT, the amyloid nucleation score was -1.24 ± 0.48. FIILYGSGMRLNFQGI had an amyloid nucleation score of 0.968 ± 0.23. With VFLYNIGFK the figure was 0.691 ± 0.38; with CFTPFMLFCKDEV, -1.12 ± 0.55. With NRELV the figure was -1.67 ± 0.64; with TDLTQF, -0.375 ± 1.1. Consider MLCKRPWVTLFRLSKCFTSD, for which the amyloid nucleation score came to 0.33 ± 0.56.

As for IFMNPICFWSNRNFLVWSNN, the amyloid nucleation score amounted to 4.5 ± 0.059. To LSGRCFFNVLLINCKRTERI belongs 2.1 ± 0.19. As to SYVCRIERADVACWVKEEGA, the amyloid nucleation score turned out to be 0.857 ± 0.28.

Consider AYGQKNVSSRSLTFV, for which the amyloid nucleation score is 3.41 ± 0.15. FEGTHCVSSIANVMCVRWCL yielded an amyloid nucleation score of 6.43 ± 0.069. With MLNYAYSL the figure was 1.42 ± 0.32; with NIRNDVLNQLT, 2.11 ± 0.14. With SNIVSWVIEDGVRKC the figure was 4.5 ± 0.049; with MCRFVLSASCFMYIEHRYGR, 0.734 ± 0.81. With SKRVDIKHSMRARDGLNRFW, the amyloid nucleation score is -0.226 ± 1.1. To LSCLK belongs -0.344 ± 0.28. To LQVTPIIPYCVSELYMYGGM belongs -0.097 ± 0.79; to REDLLRNKTLL, -0.858 ± 0.44; to PMFCFCPLCLWHKDCISINS, 8.227 ± 0.078.

Substance RLYTREQLRTLWLSYMFLRK registered an amyloid nucleation score of -0.357 ± 0.29. With SVVAVFLKYCVVADSATGV the figure was 0.001 ± 0.76. With YGSKTRRVWGLRGYRDEGYR the figure was -0.413 ± 0.74; with SVLNGAAGMYWCW, 0.107 ± 0.46. With RRVVVTWMSNIPRLLSRGVN the figure was 0.171 ± 0.23; with QPILSNLLNHLYTNILSSTL, -0.936 ± 0.64; with FLISEDVFHSNSSVWEHISL, -0.173 ± 0.56. On to CVSGNMYRLGVINW, for which the amyloid nucleation score amounted to 0.156 ± 0.29. With CIRFVVMNIYGAASDKSMVG the figure was 7.422 ± 0.036; with GIWNLQYRREV, 0.596 ± 0.32; with DTNLFTGGSLSVFYFDDGDK, 2.96 ± 0.15. In turn, THLHCCYRETISDP yielded an amyloid nucleation score of 0.175 ± 0.33.

Substance TFAVFSYLRFIATNSGNIKA gave an amyloid nucleation score of -0.606 ± 0.48. With GNAQGSTFYVVPFIQYRVFM the figure was 6.744 ± 0.035. With HSAYSWFLKSSNRRSWANSS the figure was -0.666 ± 0.79; with LIRVILDGGKGKAGNTWVLQ, 5.17 ± 0.098; with KAREWQVLVRCKKLTMKYSK, 8.227 ± 0.046. To LNFDLLTMFWT belongs 0.182 ± 0.79; to RVERLWVLHSKATQRRM, 0.063 ± 0.79; to NFYSYIWLLL, 6.38 ± 0.064. Turning to IMYLVENMCHDKKFYCSVNL, the amyloid nucleation score turned out to be 4.34 ± 0.087.

The substance FPSVLSFWKTMSVCGDHPYP registered an amyloid nucleation score of -0.686 ± 0.3. With VEFIVSWHGPAKRYPYATTL the figure was 0.629 ± 0.34; with WYVLFSMMWA, -1.36 ± 0.78.

In turn, QRYGVFAYGRLIRIHCRRLG had an amyloid nucleation score of 0.159 ± 0.29. With VHLALTRCM the figure was 0.844 ± 0.32. With SMDFNNDC the entry was “inactive”; with CAVRWVGVS, 1.12 ± 0.23. Substance KNYHCTLSWLWFMACFSGIP showed an amyloid nucleation score of 2.61 ± 0.15. To YVMNRCNR belongs -0.019 ± 0.54. The substance HEYLRGRGTFGNIQDYNKLM displayed an amyloid nucleation score of -0.447 ± 1.1.

On to YFMLRSVTL, for which the amyloid nucleation score was determined as 3.75 ± 0.1.

LLQIQCICEGMRQWMLKYYY: the amyloid nucleation score was -0.994 ± 1.1.

The substance GFWVWMWPRSHCAGGPSLDL showed an amyloid nucleation score of 1.13 ± 0.4. Regarding SVSSKGNLGA, the amyloid nucleation score stood at 0.11 ± 0.22. The substance YFWSRLRFVCRDRSGKNYCS registered an amyloid nucleation score of -0.138 ± 0.76. As for IFYYIDCCHITARYFQREGM, the amyloid nucleation score amounted to 7.71 ± 0.081. With RVSGNCIYTKWCVFPVGNLL, the amyloid nucleation score was -1.12 ± 0.76. To NLHATWTLDESDFLYQPCLS belongs 0.102 ± 0.2; to WNHGIWS, 1.03 ± 0.37; to RGMSAKSTERYVLGIGRAVS, 4.18 ± 0.11. With WAWIHSADLNYNCVMRGCLP the figure was 2.16 ± 0.14; with SVMPMRYLVCVILLGRRSRT, 0.765 ± 0.16. To CLTSFEES belongs -0.155 ± 0.65. TGLVFVLMCKSCQWFFREML returned an amyloid nucleation score of -0.948 ± 0.42. To LTSKAVAYNDLACFMLS belongs 0.613 ± 0.74; to FRLIQWWARWIVFFGSTSLH, -0.804 ± 0.45; to RLEVGGTN, 2.86 ± 0.11. To GHVAWSNDSWERESFF belongs -0.989 ± 0.76; to NVVSLILVVLRASCTYLYNG, “inactive”; to VCSKHD, -0.78 ± 1.1. In turn, SWLSQKSLESALRAIMNGKY yielded an amyloid nucleation score of 2.13 ± 0.16. To GVLFAELLIFVVKSSVVV belongs 2.01 ± 0.23.

KRSLNLLKGLIYL yielded an amyloid nucleation score of -1.05 ± 1.1.

SFCGLTVILGRSSSAWGLPT registered an amyloid nucleation score of 6.959 ± 0.053. With SVVWCWCSEW the figure was 0.602 ± 0.81; with RWMLIAE, 1.03 ± 0.31. Regarding SREYLSRFVTFYLMYFYAKS, the amyloid nucleation score was -0.516 ± 0.64. For EPSCTATKFVSGTMF, the amyloid nucleation score is 2.17 ± 0.11. With YKDEGINEPYTVRTVHKLTT the figure was 0.215 ± 0.76; with IWRAQTSWSSSMFTWAVGLR, 1.4 ± 0.33; with KDLEFGRCIDDDYPLSRSF, 0.141 ± 0.46. With DIPPKDLLGVFIDDEIREYC the figure was -0.436 ± 0.76; with RCWWAYQ, 1.11 ± 0.12. QGILGSFIGKRCGFTRLKTL: the amyloid nucleation score entry was “inactive”. With SISVLYNLRLLCIYNIVVYR the entry was “inactive”; with LYRVLNTVHVSHLQTIRP, -0.064 ± 1.1. With AGYLNRNHLLRMLYWCSCFG the entry was “inactive”; with TPHGIYEHLPQEY, -0.273 ± 0.49. To VGTGLIIA belongs 1.18 ± 0.47; to HSSISVCVYSRLPCH, -0.447 ± 0.36; to GYNKLSLSL, -0.863 ± 0.64. On to SRSGCHYCAVYTQIVLPRAP, for which the amyloid nucleation score turned out to be 8.711 ± 0.081. For LLNALCMWMPM, the amyloid nucleation score was determined as 6.876 ± 0.051. To IGGGTLYWGVDWVMY belongs 2.96 ± 0.12.

Take SPSHGVRNP: the amyloid nucleation score was 1.51 ± 0.34.

As to GDDWSADVVI, the amyloid nucleation score is -0.718 ± 0.55. VYTSYGSRSFTFNRFNAWTD: the amyloid nucleation score was -0.97 ± 0.78. With NVYLTQSWSFHNLHRFYYST the figure was 2.57 ± 0.083; with RLFRAFNLCYAAIRVGASPQ, 0.287 ± 0.26. With AVINPPKHVVCCFD the figure was -0.189 ± 0.23; with CCWVDLGLKRMYESLFDR, 4.14 ± 0.051; with QLFRCGRWGLLFSAAFFYLV, 0.264 ± 0.8.

For FIRVLVWWYVCRLFPHCVAR, the amyloid nucleation score was 0.554 ± 0.81. As to YNPCLSRSHSKCLRTWLECR, the amyloid nucleation score was 1.26 ± 0.44.

In turn, LVGMSANNTVKYSK registered an amyloid nucleation score of 0.144 ± 0.36. As for QVSYNLCNR, the amyloid nucleation score entry was “inactive”. Regarding RHMWDHFCCFF, the amyloid nucleation score amounted to 5.28 ± 0.094.

In the case of DKSSMYSSTMRPL, the amyloid nucleation score worked out at 0.06 ± 0.65. To SMYCTPFILCYNPHSNRVAH belongs 9.811 ± 0.037; to ILSCWSCRGRINTY, 1.9 ± 0.14. With MTVASCSTGCHD the figure was 0.084 ± 0.54. With SWTLFKTLMWIRHILFVECR the figure was -0.973 ± 0.55; with VIRRGMFIQPAFAKMLSAWF, -0.231 ± 1. With WRGGFWPCSVVLI, the amyloid nucleation score is 0.354 ± 0.65. With LASNFGFHGLAADMDALWCY the figure was -1.23 ± 0.78; with FAESDGRHHFFSPLVSERIE, 3.82 ± 0.056. With QLKYVSGNIYRLVVWVRGSP the figure was -0.926 ± 0.37. To VRWIKVFHFP belongs -0.784 ± 0.76; to IWESSIYLNEETNDCLEKL, “inactive”; to TNLQSVRYVAHTF, 3.96 ± 0.068. IRWFTEKISDKHLTGCRGLT: the amyloid nucleation score amounted to 0.345 ± 0.45. MLNSMVGQNFVGYNHALFFH showed an amyloid nucleation score of 4.16 ± 0.089. With IALANVGLED the figure was -0.023 ± 0.33.

YIVCKDSTSQVYYFSSDNFY: the amyloid nucleation score was 4.09 ± 0.095.

SHEIVCTSVRSLTIFKQVQR came in with an amyloid nucleation score of 3.24 ± 0.059. As to KGDGNRSDTDVFITHIFMYY, the amyloid nucleation score came out at 6.336 ± 0.048. With FYSFRLFMV the figure was 1.88 ± 0.2. In the case of LSARFHHAKFLNYSDSRVGQ, the amyloid nucleation score result was “inactive”.

For the origin of these results see the supplement of paper PMC12042874.
